± gives the standard deviation.

This series in a line: protein stability index of a GFP-peptide fusion (GPS, HEK-293T) (PSI 1-6); higher = more stable. The conditions noted are these: c terminus: a fixed tail appended.
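Further: 24-mer peptide tiles fused after GFP, lentivirally expressed, FACS-sorted into six equal bins by GFP/DsRed ratio, decoded by Illumina sequencing, PSI is the read-weighted mean bin number.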

As for VAGGLVACRVTELQQQPLCTSVNT [LRRC59], the protein stability index is, setting by setting: (treatment: DMSO) 2.39 ± 0.5; (treatment: MLN4924 1 uM, 8 h) 2.59 ± 0.18.

The sequence YILLVTSDVLTISGTIMKIGIEAK [MCOLN1] registered a protein stability index (treatment: DMSO) of 3.09 ± 0.5 and a protein stability index (treatment: MLN4924 1 uM, 8 h) of 3.17 ± 0.39. For KQLLDSKIGFEIGIENEEDTSKQK [ZNF449], in that order: 5.3 ± 0.27 and 5.26 ± 0.3.

Take RLGPYVLLEPEEGGRAYQALHCPT [TRIB3]: the protein stability index (treatment: DMSO) turned out to be 2.69 ± 0.1 and the protein stability index (treatment: MLN4924 1 uM, 8 h) was 2.87 ± 0.38. For RDQGSSALSGVGGIRLPNGKLKCD [IKZF1], in that order: 4.66 ± 0.33 and 4.68 ± 0.32.

Regarding VKRKIRDESLCPQHHEALSLFCYE [TRIM39], the protein stability index reads like this: (treatment: DMSO) 2.38 ± 0.11; (treatment: MLN4924 1 uM, 8 h) 2.73 ± 0.3. For LSSDRVANSSSEAPFPNVSTSLLT [ADAMTSL2], in that order: 4.17 ± 0.21 and 4.14 ± 0.29. For GGVGGSSRARSASSPRGMVRVCDL [ANKRD17] the same measures were 3.97 ± 0.28 and 3.97 ± 0.36. For TLRGTGATADFADVADDFENYHKL [NETO1], in that order: 4.4 ± 0.22 and 4.49 ± 0.084. Turning to LQHVSEPQAHQESTRGAARPAQAI [SPACA9], the protein stability index came to 4.96 ± 0.19 (treatment: DMSO) and 5.04 ± 0.098 (treatment: MLN4924 1 uM, 8 h). For the sequence SPSFPEAPDSGRSAPYSAAFLELP [TBX6], the protein stability index (treatment: DMSO) worked out at 3.96 ± 0.3 and the protein stability index (treatment: MLN4924 1 uM, 8 h) came out at 3.93 ± 0.44. For LIYMVTIMGNLLIIVTIMASQSLG [OR4A15], in that order: 3.18 ± 0.43 and 3.1 ± 0.29.

FKKHDADKVGLITLSDWAAAVESV [PPEF2] came in with a protein stability index (treatment: MLN4924 1 uM, 8 h) of 2.64 ± 0.46. Sequence RAGSQVVATTARHSAAYRADPLRV [FUNDC2] showed a protein stability index (treatment: DMSO) of 3.59 ± 0.22 and a protein stability index (treatment: MLN4924 1 uM, 8 h) of 3.78 ± 0.17. For LYQKQPKIGYHLLYYLRASKAAAG [INTS3], in that order: 2.55 ± 0.31 and 2.25 ± 0.33. For MSTFRQEDVEDHYEMGEELGSGQF [DAPK3] the same measures were 5.43 ± 0.22 and 5.33 ± 0.48. For RDWWNSTSFSNYYRTWNVVVHDWL [SOAT2], in that order: 2.35 ± 0.34 and 2.26 ± 0.21. Take AAMLRGQSDVGVAVFENKIYVVGG [KLHL13]: the protein stability index stood at 2.07 ± 0.12 (treatment: DMSO) and 2.46 ± 0.55 (treatment: MLN4924 1 uM, 8 h). For CTQVTQDGDIPNIPAEENASTSTP [FAM189A2] the same measures were 5.65 ± 0.2 and 5.5 ± 0.33. Regarding PASGSTFRGRRDVSGSWERDQQVE [RETREG3], the protein stability index was found to be 4.67 ± 0.22 (treatment: DMSO) and 4.86 ± 0.28 (treatment: MLN4924 1 uM, 8 h). For LCSRQDLYPALKGVNTVFHCASPP [NSDHL] the same measures were 2.66 ± 0.32 and 2.79 ± 0.25. For NHAIDIICGFLKERCFRGSSYPVC [OAS1] the same measures were 2.88 ± 0.38 and 2.6 ± 0.44. For RFTGTMDAFVKIVRHEGTRTLWSG [SLC25A39] the same measures were 2.53 ± 0.52 and 2.47 ± 0.25.

For the sequence MVANILNNEAFMNQEITKAFHVRR [RHOBTB2], the protein stability index was found to be 2.53 ± 0.27 (treatment: DMSO) and 2.5 ± 0.27 (treatment: MLN4924 1 uM, 8 h).

Take SSEVGPFVSKIRAVINDIANLPVP [AUH]: the protein stability index reads like this: (treatment: DMSO) 2.64 ± 0.25; (treatment: MLN4924 1 uM, 8 h) 2.62 ± 0.42.

As to RSHSDSLDHDIFQLIDPDENKENE [CDC25A], the protein stability index is 5.14 ± 0.44 (treatment: DMSO) and 5.48 ± 0.2 (treatment: MLN4924 1 uM, 8 h).

Take PERLCSGPGIVGNVLVDPSARIGQ [GMPPB]: the protein stability index turned out to be 3.92 ± 0.27 (treatment: DMSO) and 3.89 ± 0.22 (treatment: MLN4924 1 uM, 8 h).

Turning to VGGATPDQTTSEETVGGAILDQTT [HDAC6], the protein stability index runs as follows: (treatment: DMSO) 5.48 ± 0.49; (treatment: MLN4924 1 uM, 8 h) 5.43 ± 0.35.

For HRWQVDLQLGDGGGCTVGVAGEGV [TRIM15], the protein stability index came out at 3.5 ± 0.27 (treatment: DMSO) and 3.38 ± 0.43 (treatment: MLN4924 1 uM, 8 h).

Turning to YPALREKSKKYSDVEVPASVTGYS [ADD1], the protein stability index reads like this: (treatment: DMSO) 4.16 ± 0.2; (treatment: MLN4924 1 uM, 8 h) 4.28 ± 0.25. For DVGRYIDHYAAIKKAWDDLKKYLE [FBXO3], in that order: 2.31 ± 0.34 and 2.97 ± 0.52. For FIIGELHPDDRPKLNKPPETLITT [CYB5A] the same measures were 2.73 ± 0.35 and 2.91 ± 0.4. For QACSLPASCCIDPREDGASVNDQC [TSPAN10], in that order: 5.06 ± 0.27 and 5.11 ± 0.25. In the case of LPSNLLKKFRSSTSSSLGDKSEYL [KCNA4], the protein stability index was found to be 3.11 ± 0.084 (treatment: DMSO) and 3.23 ± 0.37 (treatment: MLN4924 1 uM, 8 h). Consider GKVIVWDSFTTNKEHAVTMPCTWV [GNB5], for which the protein stability index came out at 2.55 ± 0.37 (treatment: DMSO) and 2.27 ± 0.36 (treatment: MLN4924 1 uM, 8 h).

As for LRRKTPRHKQPTLLMVRASRRSGK [C6orf223], the protein stability index reads like this: (treatment: DMSO) 3.61 ± 0.13; (treatment: MLN4924 1 uM, 8 h) 4.04 ± 0.22. For LGFGSAKEAVTGSRLGQGIGPIHL [LOXL2] the same measures were 2.7 ± 0.26 and 2.64 ± 0.073. For FDCPSELQHTQELFPQWHLPIKIA [STEAP1], the protein stability index came out at 2.78 ± 0.33 (treatment: DMSO) and 2.79 ± 0.38 (treatment: MLN4924 1 uM, 8 h). For YSSGSYDSIKTEVSGCPEDLTVGR [NOL4L] the same measures were 4.49 ± 0.23 and 4.44 ± 0.23. NFPQCVLEISDQEVLEWYTAKDFI [EFHC1] returned a protein stability index (treatment: DMSO) of 2.51 ± 0.33 and a protein stability index (treatment: MLN4924 1 uM, 8 h) of 2.6 ± 0.45. For MGQTALAGGSSSTPTPQALYPDLS [SPSB2], in that order: 4.46 ± 0.37 and 4.66 ± 0.37. For VIVQIKQPRKKYVQRKSDFDQTVF [NETO1], in that order: 2.09 ± 0.3 and 2.09 ± 0.076.

Consider ERWLKELRDHADSNIVIMLVGNKS [RAB11A], for which the protein stability index was 2.32 ± 0.29 (treatment: DMSO) and 2.26 ± 0.34 (treatment: MLN4924 1 uM, 8 h). For PTQGPETPRSPEGTTEAATQDGKE [PXN] the same measures were 5.62 ± 0.19 and 5.48 ± 0.22.

On to GNYMEAKSVLIPVYGVSKETFLSF [RHOBTB3], for which the protein stability index came out at 2.69 ± 0.53 (treatment: DMSO) and 2.31 ± 0.34 (treatment: MLN4924 1 uM, 8 h).

HDEDIKTTNVKSASRQKTSLGIEL [ZNF396]: the protein stability index is, setting by setting: (treatment: DMSO) 4.5 ± 0.27; (treatment: MLN4924 1 uM, 8 h) 4.58 ± 0.14. For DLKDDGNMMKVLRGHQNWVYSCAF [WSB1] the same measures were 2.3 ± 0.29 and 1.87 ± 0.22.

Regarding PEKKSDQPMCEEHEEERINIYCLN [TRIM55], the protein stability index (treatment: DMSO) was found to be 4.79 ± 0.12 and the protein stability index (treatment: MLN4924 1 uM, 8 h) came out at 4.77 ± 0.35. Take EVANFYYEADCLAAAYGGKAAPAA [CEBPB]: the protein stability index is, setting by setting: (treatment: DMSO) 2.91 ± 0.38; (treatment: MLN4924 1 uM, 8 h) 2.83 ± 0.38. As to MEMYNVIMTVKEDQFSALGLDPCL [SLC6A17], the protein stability index came to 2.45 ± 0.62 (treatment: DMSO) and 2.26 ± 0.15 (treatment: MLN4924 1 uM, 8 h). For GCLLDDGLEGLFEDIDTSMYDNEL [SERTAD1], in that order: 4.28 ± 0.48 and 4.32 ± 0.42. For RAVDWWALGILIFEMLSGFPPFFD [PRKX], in that order: 2.99 ± 0.42 and 2.78 ± 0.57. For the sequence GPAGHSKGELAPELGEEPQPRDEE [POLD4], the protein stability index runs as follows: (treatment: DMSO) 5.41 ± 0.23; (treatment: MLN4924 1 uM, 8 h) 5.43 ± 0.15. For IELQGVPNDEVHPLLGVKGDGKSK [RBBP5] the same measures were 5.14 ± 0.19 and 4.96 ± 0.21.

In the case of MEALAAETNLLLAQKQRLERALDA [TEKT4], the protein stability index by setting is: (treatment: DMSO) 4.13 ± 0.4; (treatment: MLN4924 1 uM, 8 h) 4.13 ± 0.38. Consider QGIGSKIIKKVAEVALDKGCSQFR [SAT2], for which the protein stability index (treatment: DMSO) is 2.44 ± 0.68 and the protein stability index (treatment: MLN4924 1 uM, 8 h) turned out to be 2.27 ± 0.36.

In the case of LLDKTCDQVMEFSWSALWNITDET [ZER1], the protein stability index is, setting by setting: (treatment: DMSO) 2.37 ± 0.28; (treatment: MLN4924 1 uM, 8 h) 2.35 ± 0.34. For MGVNAVHWFRKGLRLHDNPALKEC [CRY1], in that order: 2.53 ± 0.23 and 2.54 ± 0.31. As for KESGQEGVDSMAEEGTSDSNTGSE [SMARCE1], the protein stability index (treatment: DMSO) turned out to be 5.01 ± 0.61. Take ERITILRGNHESRQITQVYGFYDE [PPP2CA]: the protein stability index is, setting by setting: (treatment: DMSO) 2.84 ± 0.13; (treatment: MLN4924 1 uM, 8 h) 3.1 ± 0.25.

SLQEEPVEGFRITLVDESDLYNWE [UBE2R2] had a protein stability index (treatment: DMSO) of 3.66 ± 0.49 and a protein stability index (treatment: MLN4924 1 uM, 8 h) of 3.58 ± 0.4.

For the sequence APLIQPCHSESGKSRLVQLPPVAV [PCMTD2], the protein stability index by setting is: (treatment: DMSO) 3.13 ± 0.21; (treatment: MLN4924 1 uM, 8 h) 3.29 ± 0.38. With CREPSPKMDFKTNILLKNLVTIAR [TRIM43], the protein stability index runs as follows: (treatment: DMSO) 2.8 ± 0.59; (treatment: MLN4924 1 uM, 8 h) 2.35 ± 0.49. For TVDKQNISLWPREPPPKSGPSLVP [CD207] the same measures were 3.84 ± 0.21 and 3.73 ± 0.082. For LLKTPWRAASAMQFFTKGYQETIS [GCH1], in that order: 2.19 ± 0.28 and 2.44 ± 0.18. For SIHYAAAYGHRQCLELVSCFVLFS [ANKRD44], in that order: 2.25 ± 0.44 and 2.2 ± 0.52. For the sequence DLKPENILFVNSEFETLYNEHKSC [CLK3], the protein stability index reads like this: (treatment: DMSO) 3.38 ± 0.37; (treatment: MLN4924 1 uM, 8 h) 3.48 ± 0.26. For GMRYAFIGPLETMHLNAEGMLSYC [CRYL1], in that order: 2.56 ± 0.62 and 2.72 ± 0.74. For NLHRVAAHELGHSLGLSHSTDIGA [MMP1] the same measures were 3.48 ± 0.33 and 3.57 ± 0.33. For RKAITEAANAARHVAPEIRELLTQ [PWWP2B] the same measures were 4.06 ± 0.29 and 4.05 ± 0.079. For TPEELEEEIPVVICAAAGRMGATM [GLT8D2], the protein stability index came out at 4.25 ± 0.26 (treatment: DMSO) and 4.29 ± 0.21 (treatment: MLN4924 1 uM, 8 h). For VKVPGIVRLRTLLCKVLGVLFSVA [CLCN6], in that order: 2.21 ± 0.32 and 2.19 ± 0.29. For YSLGGVRSLNVASGSGKSGGYGFG [KRT71], the protein stability index is, setting by setting: (treatment: DMSO) 2.72 ± 0.34; (treatment: MLN4924 1 uM, 8 h) 3.29 ± 0.49.
